# What was measured:
# [1] = biological target: T1, HLA-A*0201 molecule on human T2 cells (human); assay: T2 cells expressing HLA-A*0201, anti-HLA-A2-PE, FACS
# T1 construct: read out with anti-HLA-A2 antibody BB7.2-PE; also called HLA-A2
# [2] = biological target: T1, HLA-A*0201 molecule on human T2 cells; assay: as above; remark: listed apart in the source
# [3] = biological target: T2, HLA-A*0201 molecule expressed by the human tumoral cell T2 (human); assay: T2 cell HLA-A2 stabilisation assay, flow cytometry with anti-HLA-A2 BB7.2-PE
# T2 construct: MHC class I on T2 cells; The tested peptide is added from outside; Surface HLA-A2 is read with anti-HLA-A2 antibody BB7.2-PE; also called HLA-A2
mean relative fluorescence intensity at 1.5625 µM peptide [1],mean relative fluorescence intensity at 3.125 µM peptide [1],mean relative fluorescence intensity at 6.25 µM peptide [1],mean relative fluorescence intensity at 25 µM peptide [1],mean relative fluorescence intensity at 50 µM peptide [1],mean relative fluorescence intensity at 100 µM peptide [1],Concentration of peptide that induces 20% of HLA-A2 expression [2] [µM],In vitro binding affinity (relative to reference peptide HIV pol 589-597) [2],binding result [3],Binder
13.5 % of HIV peptide,23.9 % of HIV peptide,44 % of HIV peptide,45.3 % of HIV peptide,85 % of HIV peptide,58.9 % of HIV peptide,3.6,0.9,,LLLSAALSV [CHI3L1B]
2.5 % of HIV peptide,14.3 % of HIV peptide,30.2 % of HIV peptide,36.7 % of HIV peptide,108 % of HIV peptide,76.9 % of HIV peptide,8.6,2.2,,YLLSAALTI [CHI3L1B3]
12.7 % of HIV peptide,22.7 % of HIV peptide,29.2 % of HIV peptide,53.2 % of HIV peptide,66.7 % of HIV peptide,70.3 % of HIV peptide,3.1,0.2,,ILDEAYVRV [EGFR-B]
0 % of HIV peptide,0.7 % of HIV peptide,10.6 % of HIV peptide,40.7 % of HIV peptide,66 % of HIV peptide,95.4 % of HIV peptide,13.3,1.1,,FMVEDETVL (Fragment of human EZH2) [EZH2-H]
5.5 % of HIV peptide,14.4 % of HIV peptide,28.9 % of HIV peptide,53.9 % of HIV peptide,82.6 % of HIV peptide,94.9 % of HIV peptide,8.8,0.7,,FLVEDETVI [EZH2-B]
,,,,,,,,binds,FMLGEFLKL [BIRC5-B1]
,,,,,,,,binds,LTLGEFLKL [BIRC5-H]

# Second part, the binder before the results:
Binder,mean relative fluorescence intensity at 1.5625 µM peptide [1],mean relative fluorescence intensity at 3.125 µM peptide [1],mean relative fluorescence intensity at 6.25 µM peptide [1],mean relative fluorescence intensity at 25 µM peptide [1],mean relative fluorescence intensity at 50 µM peptide [1],mean relative fluorescence intensity at 100 µM peptide [1],Concentration of peptide that induces 20% of HLA-A2 expression [2] [µM],In vitro binding affinity (relative to reference peptide HIV pol 589-597) [2],binding result [3]
FLDSLGFSL [TYMS-B2],10.7 % of HIV peptide,21.5 % of HIV peptide,27.5 % of HIV peptide,61.1 % of HIV peptide,62 % of HIV peptide,71.3 % of HIV peptide,2.7,0.2,
YTLGEFLYI [BIRC5-B2],,6.6 % of HIV peptide,9 % of HIV peptide,29.6 % of HIV peptide,54.4 % of HIV peptide,58 % of HIV peptide,14.7,4.5,
GLLGEFLQI (also called B1RC5-B3) [BIRC5-B3],9.4 % of HIV peptide,8.9 % of HIV peptide,,20.9 % of HIV peptide,29.8 % of HIV peptide,35 % of HIV peptide,22.9,7,
LLLSAALSA (Fragment of human CHI3L1) [CHI3L1H],-1.9 % of HIV peptide,1 % of HIV peptide,4.4 % of HIV peptide,4.9 % of HIV peptide,14.5 % of HIV peptide,11.2 % of HIV peptide,,,
ILPFGFILA [peptide 1I9A],,,,,,,,,binds
LMLGEFLKL [peptide 2M],,,,,,,,,binds

# From patent US20210113678A1 (ENTEROME S A, published 2021)
